The assay deals with p38α kinase (residues 1–360 of human p38α) (human, UniProt Q16539 1-360). Nature of the assay: ITC.
Chain of p38α kinase (residues 1–360 of human p38α) (Q16539 whole entry, the tested form may be a part): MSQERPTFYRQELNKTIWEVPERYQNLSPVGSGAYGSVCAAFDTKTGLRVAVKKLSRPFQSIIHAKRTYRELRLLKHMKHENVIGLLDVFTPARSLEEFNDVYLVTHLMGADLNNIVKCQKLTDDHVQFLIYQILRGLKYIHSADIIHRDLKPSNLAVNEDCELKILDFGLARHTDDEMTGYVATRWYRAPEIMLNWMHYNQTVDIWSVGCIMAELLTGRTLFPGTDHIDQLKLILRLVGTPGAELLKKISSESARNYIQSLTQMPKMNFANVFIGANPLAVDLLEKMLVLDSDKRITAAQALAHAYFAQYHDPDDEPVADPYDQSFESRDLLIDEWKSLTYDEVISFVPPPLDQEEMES

B1: regulatory domain of MKK4 (residues 12–86) with N-terminal thioredoxin and 6xHis tag, unlabeled, for ITC (domain or fragment)
chain: SGGGSGSGTPGPVGSPAPGHPAVSSMQGKRKALKLNFANPPFKSTARFTLNPNPTGVQNPHIERLRTHSIESSGK
For the molecule B1, binding was characterised by a dissociation constant (Kd) of 4.1 µM.

Values taken from PMC8391806 (2021).
